Results on two substances are retold here after article doi:10.1101/2025.07.08.663041.

For orientation: stoichiometry N means the number of molecules, sites or subunits per partner or assembly.

Assay [1] deals with Caveolin-1 L125C 98W (UniProt Q03135).
Assay [2] concerns the target Caveolin-1 I121C 98W (UniProt Q03135).

Consider “Caveolin-1 L125C 98W (from UniProt Q03135 1-178) (natural protein)”, for which the stoichiometry N in assay [1] is 2. Substance “Caveolin-1 I121C 98W (from UniProt Q03135 1-178) (natural protein)” showed a stoichiometry N in assay [2] of 2.
